In brackets after ≈: the same amount, converted by molar mass. Several values for one entry are separate records, joined by “and”; a condition that tells them apart may be missing. Equal entries are not always repeated.
Key:
[1] = Maximum soluble concentration in media; assay type: physicochemical; conditions: yeast culture media, aqueous buffer
p1-encoded leu2 (Q180*) = assay: qPCR measurement of p1-encoded leu2 (Q180*) copy number; assay type: cell-based, S. cerevisiae; conditions: qPCR-determined p1 copy number, OR-Y24 strains
Method: A calibration curve was established to correlate p1 copy number, determined via quantitative PCR (qPCR), with fluorescence of p1-encoded mKate2 (Table 1). Five TP-DNAP1 variants representing a wide range of copy numbers were transformed into ORY24 and passaged until w.t. p1 was displaced. The five OR-Y24 strains were grown to saturation, diluted 1:10,000 to mimic p1 fluctuation tests, and grown in triplicate 100 μL cultures and duplicate 40 mL cultures. 100 μL saturated cultures were subject to fluorescence measurement of mKate2 (ex/em=561 nm/620 nm, bandwidth=15 nm) on a flow cytometer (Invitrogen Attune NxT). Whole-cell DNA extracts were prepared from 40 mL cultures and used as templates for qPCR measurement of p1-encoded leu2 (Q180*), as described previously (Ravikumar et al., 2014). p1-encoded LEU2 was PCR amplified with qPCR-Leu2F and qPCR Leu2R; and genomic LEU3 was PCR amplified with qPCR-Leu3F and qPCR-Leu3R using SyBR Green (Fisher Scientific) master mix.

p2-encoded leu2* = assay: p2 leu2* fluctuation tests in GA-Y021 (p2 mutation rate reporter strain); assay type: cell-based, S. cerevisiae; conditions: GA-Y021, noncognate polymerase in trans, mutual orthogonality experiment
Description: For fluctuation tests used to measure p2 mutation rates, leu2* served as a marker for detecting mutational events. leu2* is a disabled version of LEU2, where Q180 is replaced with a TAA stop codon. Q180 is a permissive site where mutation to any other codon other than TAG and TGA results in functional reversion to LEU2. These mutational events can be detected by plating scores of parallel cultures on medium lacking leucine and counting the number distribution of functional LEU2 mutants.
For TP-DNAP2 library screening, each library member was subjected to small-scale leu2* fluctuation tests with six replicates. 190 library members from each yeast library transformation were arrayed and inoculated into liquid SC medium lacking uracil and histidine, and passaged three times at 1:10,000 dilutions. mKate2 fluorescence was measured at every passage on a microplate reader (TECAN Infinite® 200 PRO, settings: λex=588, λem=633) to track p2 copy number stabilization. To perform fluctuation tests, each library member was diluted 1:10,000 into liquid SC medium buffered to pH 5.8 and lacking uracil, histidine, tryptophan, and dilutions were split into six 100 μL replicates. Cultures were grown for 48 hours at 30° C. to reach saturation. Saturated cultures were washed with 200 μL 0.9% NaCl to remove residual leucine and resuspended in 35 μL of 0.9% NaCl. 10 μL of this resuspension was spot plated onto solid SC medium buffered to pH 5.8 and lacking uracil, histidine, tryptophan and leucine. Spot plates were allowed to dry and incubated at 30° C. Colonies were counted after 5 days. Colony counts were used to calculate the expected number of LEU2 functional mutants (m), using the p0 method (Foster, 2006, Methods Enzymol, 409:195-213).
(§1) To precisely measure p1 and p2 per-base substitution mutation rates, several modifications were made to the small-scale protocol. First, 36 replicates were performed for reconfirmation of candidate TP-DNAP2 mutators, and 48 replicates for genomic and mutual orthogonality experiments. Titers were also determined for each strain after spot plating by pooling the residual volume from 4 replicates and plating dilutions on YPD. The expected number of LEU2 functional mutants (m) was determined by the Ma-Sandri-Sarkar maximum likelihood estimator (as calculated by the FALCOR tool and corrected for partial plating (Foster, 2006, Methods Enzymol, 409:195-213; Sarkar et al., 1992, Genetica, 85:173-179; Hall et al., 2009, Bioinformatics, 25:1564-1565). The mean mKate2 fluorescence was determined from 50,000 event counts on Attune™ NxT Flow Cytometer and converted to p2 copy number by using a calibration curve. To determine per-base substitution rates, the corrected m was normalized to the average cell titer, the p2 copy number, and the target size for functional leu2* reversion (2.33 bp). 95% confidence intervals were similarly scaled.
To identify error-prone TP-DNAP2s, a small library of TP-DNAP2s diversified at locations hypothesized to be responsible for DNAP fidelity was screened. […] Four distinct site-saturation mutagenesis libraries were generated, each diversifying S370, Y424, L474, or F882 in TP-DNAP2 encoded on pGA55-reTP-DNAP2. Due to unsuccessful attempts to generate a strain with a full deletion of p2-encoded TP-DNAP2 and simultaneous integration of mKate, URA3, and leu2*, each library was transformed into GA-Y021 for convenient screening. However, since GA-Y021 still encodes wt TP-DNAP2 on p2-delORF1-mUL*, p2 mutation rates measured in this format are the result of in tandem replication of p2 by wt TP-DNAP2 and each TP-DNAP2 variant encoded in trans. 6-fold coverage of each library was maintained by picking 190 yeast colonies and passaging under selection for URA3 to stabilize the copy number of p2-delORF1-mUL* in the presence of the newly introduced TP-DNAP2 variants. […]

p1-encoded leu2* = assay: p1 leu2* fluctuation tests in AR-Y304 (p1 mutation rate reporter strain, mutual orthogonality); assay type: cell-based, S. cerevisiae; conditions: AR-Y304, polymerase in trans
Description: Strains for testing mutual orthogonality were generated by transforming a panel of CEN6/ARS4 vectors encoding TP-DNAP1 or TP-DNAP2 variants into two base strains, AR-Y304 and GA-Y021. AR-Y304 (Ravikumar et al., 2014, Nature Chemical Biology, 10:175-177) contains recombinant p1 encoding mKate2, URA3 and leu2* without disturbing the native TP-DNAP1 ORF. Similarly, GA-Y021 encodes recombinant p2 that replaces ORF1 with mKate2, URA3 and leu2* without disturbing the native TP-DNAP2 ORF.
as §1
To test whether the replication mechanisms of p1 and p2 are mutually orthogonal in vivo, p1 and p2 mutation rates were measured in the presence of a panel of TP-DNAP1 and TP-DNAP2 variants with varying mutation rates. Changes in p1 or p2 mutation rate induced by TP-DNAP variants would therefore signal a degree of cross-replication between TP-DNAP1/p1 and TP-DNAP2/p2, if any. A panel of six polymerases was introduced on CEN6/ARS4 vectors into two separate base strains, AR-Y304 (p1 mutation rate reporter strain) and GA-Y021 (p2 mutation rate reporter strain), encoding mKate2, URA3, and leu2* on either p1 or p2, respectively. Included in this panel were TP-DNAP1^WT and two error-prone TP-DNAP1 variants found in previous screens: TP-DNAP1^1777K, L900S and TP-DNAP1^L477V, L640Y, I777K, W814N. Also included were TP-DNAP2^WT and the error-prone TP-DNAP2^S370Q and TP-DNAP2^Y424Q variants found in this work. In AR-Y304 and GA-Y021, both p1 and p2 still encode their native wt TP-DNAP's. Any contribution to replication by a third TP-DNAP encoded in trans is monitored by detecting changes in linear plasmid mutation rate. Importantly, these experiments afford each DNAP an opportunity to replicate its native plasmid and lose its attached TP, becoming “spent” and perhaps more likely to replicate its noncognate linear plasmid through DNAP exchange (Klassen and Meinhardt, 2007, Linear Protein-Primed Replicating Plasmids in Eukaryotic Microbes, in Microbial Linear Plasmids, pp 1 87-226. Springer, Berlin, Heidelberg). The presence of TP-DNAP1^WT or TP-DNAP2^WT in trans had no effect on their noncognate linear plasmids' mutation rate. […] Likewise, p1 mutation rate was unaltered in the presence of mutagenic TP-DNAP2^S370Q and TP-DNAP2^Y424Q, which increased p2 mutation rate by 29- and 16-fold, respectively (FIG. 9). Thus, TP-DNAP1 replicates p1 with at least 870-fold specificity over p2, while TP-DNAP2 targets p2 with at least 29-fold specificity over p1. The level of mutual orthogonality measured here is limited by the error-rates of DNAPs used, especially that of TP-DNAP2 variants.

CCc1nc(N)nc(N)c1-c1ccc(Cl)cc1 [pyrimethamine]
solubility [1]: 3000 µM (≈ 746 µg/mL)

B1: I777K, L900S: TP-DNAP1 variant, encoded by SEQ ID NO:7 (protein, listed as Kluyveromyces lactis)
chain: MDYKDKALNDLRNVYADFDSLPLDFRQILIKDRATLLQKEDVEKKILERQEDAKKYAEYLKQSEIPERISLPNIKRHKGVSISFEETSEDMVLEPRPFIFDGLNIRCFRRETIFSLKNKILNMVKESSSFKNVSRQSVSFMYFKIFNKGKVIASTKSVNIYEDKIDERLEDLCNNFDDVLKKIIDVTYGYESLFVSETYSYVIFYAKSIYFPQPRCVNNWGNNIPNILTFDSFKLFTANKNNVSCIKQCSRFLWQKDFNTLEEMIEYKNGNICIVTPQLHINDVRDIKSFNDIRLYSESPIKTFSVIDNTITYLFYFKEHLGVIFNITKSRHDRRVTKFSPLSKFSDVKNITVCFDIESYFDPEKESNQVNIPFICCASIIYNKVIGNIVDFEGRDCVAQMIEYVVDICGELNISSVELIAHNGGGYDFHYILSSMYNPAAIKNILIRNNSFISFNFAHDGVKFSVKDSYSFLLCSLANASKAFLNEETFKKTDFPHHDLKTADDLYKVYKEWSSVNTEINHVVEKEKLLITSEHIVNFTKNDKSKTLIEWSKDYCRNDVLVLSKVWLEFKNAVEDIFNCELVDQTMTLAGLSYKLFQANMPFDVELRHPNKEDYFNMREALIGGRCISVNGIYKDVLCLDVKSLYPASMAFYDQPYGSFKRVSSRPKDELGIYYVRVTPNRNNKSNFFPIRSHNKITYNNFEESTYIAWYTNVDIDIGLSEGHNIEYIPFDSYGNIGYSWSKKGKIFEKYIKDVLYKLKIKYEKQNNKVKRNVIKKIMNSLWGKFAQKWVNFEYFIKSEDDIDFESEEAYKIWDTDFMLIKKIKESTYSSKPIQNGVFTLSWARYHMKSIWDAGAKEGAECIYSDTDSIFVHKEHFKKNAKFMLNGLKVPIIGSEVGQSELECEFDKLLCAGKKQYMGFYTYFQDGKPCIKEKKRFKGIPSNYIIPELYAHLLSGADKEAKIQFLKFRREWGSVKGYIENKTVKAT
Average leu2 (Q180*) copy number per cell (p1-encoded leu2 (Q180*)): 22.5 and 38.6
change in p2 mutation rate by TP-DNAP1 (p2-encoded leu2*): no statistically significant change
fold increase of p1 mutation rate (p1-encoded leu2*): 380 fold
